# Test: soluble on expression in E. coli; label from the status in PepcDB or PDB records
row,Sequence,soluble on expression in E. coli
1,MSLSTEPLASRMRPKNIDEIISQQHLVGPRGIIRRMVDTKKLTSMIFYGPPGIGKTSIAKAISGSTQYKFRQLNAVTNTKKDMQLVVEEAKMSGQVILLLDEIHRLDKAKQDFLLPHLENGKIVLIGATTSNPYHAINPAIRSRAQIFELYPLNDEDVRQALTRAIEDDENGLKTYQPKIDEDAMTYFSTQSQGDVRSALNALELAVLSADNDKDGYRHVTLQDAKDCLQKGAFVSDKDGDMHYDVMSAFQKSIRGSDVNAALHYLARLIEAGDLPTIVRRLLVISYEDIGLASPNAGQRTLAAIESAERLGLPEARIPLSQAVIELCLSPKSNSAMSAIDSALSDIRNGHVGQIPNHLKDGHYQGAKDLGRSIGYKYPHQYVNGYVSQQYLPDKLKNKIYYEPKTTSKSEQQLKEIYNNLLKEGHHHHHH,soluble
2,MVDLGSDRLPVAVIGAGPVGLAAAAHLAERSVPFVVLEAGDAAATAVQAWSHIQLFSPWEFNTDPAARRLLAAAGWEEPDASALPTGGDLVKQYLQPLAELPALASHIRYGAEVTAISRLGIDRLRTADRDAAPFVLRLADGEEVLARAVIDASGTWRQPNHVGANGLPAHGEKDAAAWINHGLPDVFGADRDQHAGRHTVVVGAGHSAANTLLALAELADTAPGTTITWAIRGADPAASFGGGSDDELPARGAIGSGLKMLVETGRVTLAANFRTHAVRRLGDDPSRDQVELVSRALDGTERSVTADRVVAATGFRPDYRIVDELRLELDPIMSAPRALAPLIDPNQHSCGTVTPHGYRELAHPEPGYYAVGMKSYGRAPTFLMLTGYEQVRSIAAALAGDLEAAQSVELQLPETGVCSVTAGGEALALRLGLTKDQHEQLLHVTAKHLGTSATASDAVLSAATELGIDQTAALQLAAYAADMFDAPGAPGCLEHHHHHH,not soluble
3,MTKDLLLELGLEELPAYVVTPSEKQLGQKMVKFLEDHRLSFETVQIFSTPRRLAVRVKGLADQQTDLTEDFKGPSKKIALDAEGNFSKAAQGFVRGKGLSVDDIEFREVKGEEYVYVTKHETGKSAIDVLASVTEVLTELTFPVNMHWANNSFEYIRPVHTLVVLLDDQALELDFLDIHSGRISRGHRFLGSDTEISSASSYEDDLRQQFVIADAKERQQMIVNQIHAIEEKKNISVEIDEDLLNEVLNLVEYPTAFLGSFDEKYLDVPEEVLVTSMKNHQRYFVVRDRDGKLLPNFISVRNGNAEHIENVIKGNEKVLVARLEDGEFFWQEDQKLNIADLVEKLKQVTFHEKIGSLYEHMDRVKVISQYLAEKADLSDEEKLAVLRAASIYKFDLLTGMVDEFDELQGIMGEKYALLAGEQPAVAAAIREHYMPTSADGELPETRVGAILALADKFDTLLSFFSVGLIPSGSNDPYALRRATQGIVRILEAFGWDIPLDELVTNLYGLSFASLDYANQKEVMAFISARIEKMIGSKVPKDIREAVLESDTYI,not soluble
4,MGSDKIHHHHHHMCQHSIANIDINKDYDESLGTEEVHYQSFSRMAAFFGRDMQAHRHDRYFQMHYLDTGQIELQLDDHRYSVQAPLFVITPPSVPHAFITESDSDGHVLTVHEELIWPLLEVLYPGTRETFGLPGICLSLADKPDELAALAHYWQLIRRESTAQLPGREHTLALLAQAVFTLLLRNAKLDDHAASGMRGELKLFQRFNQMIDSHYHQHWTVPDYARELHLTESRLTDICRRFANRPPKRLIFDRQLREAKRLLLFSDSAVNEIAWQLGFKDPAYFARFFSRQVGCSPSSYRAQKVPVS,not soluble
5,MGSDKIHHHHHHMPVKLAQALANPLFPALDSALRSGRHIGLDELDNHAFLMDFQEYLEEFYARYNVELIRAPEGFFYLRPRSTTLIPRSVLSELDMMVGKILCYLYLSPERLANEGIFTQQELYDELLTLADEAKLLKLVNNRSTGSDVDRQKLQEKVRSSLNRLRRLGMVWFMGHDSSKFRITESVFRFGADVRAGDDPREAQRRLIRDGEAMPIENHLQLNDETEENQPDSGEEE,not soluble
6,STMSGYLYRSKGSKKPWKHLWFVIKNKVLYTYAASEDVAALESQPLLGFTVTLVKDENSESKVFQLLHKGMVFYVFKADDAHSTQRWIDAFQEGTV,soluble
7,MEQPLMPPAPPSYVASQSQAITTQPGASIPMPPGTIVIEALPPVEGIPGGLEYLAYLDTIMVHQFLEPIEIRTGWETKNKYAIKKICYQKRQCCGAERAFVMHIVDNFNKEVLTVKRERHCCGCCCWLGSTNKSTIESPSMGLLGTVLLGHGCTNSHCNVLDKDEELLFLVDGQGCCTYCCCDDKAFTIKTPDTYKRIGAITKKWGGIIREAYTDADTFAVTFPADLDVKAKALLLATTILQSLRVVVEVEKLEIEIFICCALFMK,not soluble

# From the DeepSol protein solubility set
